Reference: PMC9453709 (2022)

Tests used:
[1] = target: SARS-CoV-2 wild-type receptor-binding domain (WT-RBD) (SARS-CoV-2, UniProt P0DTC2 319-541); test: ELISA
[2] = target: SARS-CoV-2 wild-type spike S1 subunit (WT-S1) (SARS-CoV-2); test: ELISA

Row | Binder | EC50 [1] [ng/mL] | EC50 [2] [ng/mL]
1 | F61, recombinant human immunoglobulin G1 (IgG1) (antibody, V domains shown) VH: EVQLVESGGGLVQPGGSLRLSCEASEIIVNRNYMNWVRQAPGKGLEWVSIIYPGGSTFYADSVKGRFTISRDNSKNTMYLQMNSLRAEDTAVYYCARSYGDFYVDFWGQGTLVTVSS VL: QSVLTQPPSVSAAPGQKVTISCSGSSSNIGNNYVSWYQQLPGTAPKLLIYDNNKRPSGIPDRFSGSKSGTSATLGITGLQTGDEADYYCGTWDSSLSAWVFGGGTKLTVL | 3.01 | 3.12
2 | D2, recombinant human immunoglobulin G1 (IgG1) (antibody, V domains shown) VH: EVQLVESGGGLVQPGRSLTLSCGASGFTFEDYAMHWVRQAPGKGLEWVSGIDWNSGVIGYADSVKGRFIISRDNAKNSLYLHMRSLTAEDTALYYCAKDVYSESGSGSYYDYWGQGTLVTVSS VL: QSVLTQPPSVSAAPGQKVAISCSGSTSNIGDNFVSWYQQFPGTAPKLLLYDDARRPSGIPDRFSGSKSGTSATLGITGLQTGDEAVYFCSTWDNSLNVVLFGGGTKLTVL | 4.41 | 3.53
